We go through 1 molecule from PMC8001533, “A Tryptophan ‘Gate’ in the CRISPR-Cas3 Nuclease Controls ssDNA Entry into the Nuclease Site, That When Removed Results in Nuclease Hyperactivity”.

Data set [1] has as its target T1, Cas3W406A (Escherichia coli K-12 MG1655, UniProt P38036 1-888, W406A).
T1 sequence: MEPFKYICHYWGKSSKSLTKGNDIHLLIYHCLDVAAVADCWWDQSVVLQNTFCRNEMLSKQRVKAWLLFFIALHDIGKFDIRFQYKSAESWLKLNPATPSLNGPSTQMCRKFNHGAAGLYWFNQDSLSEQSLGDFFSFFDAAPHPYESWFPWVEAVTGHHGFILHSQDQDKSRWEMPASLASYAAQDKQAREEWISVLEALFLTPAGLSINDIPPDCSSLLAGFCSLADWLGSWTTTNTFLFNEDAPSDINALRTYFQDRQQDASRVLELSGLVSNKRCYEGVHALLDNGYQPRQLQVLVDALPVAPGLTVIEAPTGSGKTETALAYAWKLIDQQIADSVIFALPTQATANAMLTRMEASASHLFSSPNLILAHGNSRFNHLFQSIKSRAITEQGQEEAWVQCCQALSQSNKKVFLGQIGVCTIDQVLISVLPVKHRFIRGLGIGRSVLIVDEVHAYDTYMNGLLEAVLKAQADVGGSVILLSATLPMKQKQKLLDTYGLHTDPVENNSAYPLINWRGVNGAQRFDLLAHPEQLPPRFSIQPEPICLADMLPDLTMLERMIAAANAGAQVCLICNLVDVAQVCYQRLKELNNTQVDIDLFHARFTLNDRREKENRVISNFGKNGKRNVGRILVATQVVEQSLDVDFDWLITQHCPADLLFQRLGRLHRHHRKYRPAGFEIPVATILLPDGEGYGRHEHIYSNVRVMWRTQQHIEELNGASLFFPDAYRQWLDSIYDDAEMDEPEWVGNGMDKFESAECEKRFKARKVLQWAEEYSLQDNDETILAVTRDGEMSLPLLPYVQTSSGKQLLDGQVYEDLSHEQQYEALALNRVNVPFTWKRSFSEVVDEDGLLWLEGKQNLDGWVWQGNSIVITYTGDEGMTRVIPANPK
Nature of the data set: EMSA; not more stable or efficient than wild type; EMSA: 20 nM fork DNA, 50 mM Tris-HCl pH 7.5, 100 mM NaCl, 0.1 mg/mL BSA, 20 mM DTT, room temperature, 1 h. The note with it: protein: recombinant; tags: (His)6-MBP or His6 (pIIB39 is the His6 pAH4 version); label: 5'-Cy5 on strand 1 (MW12); fork 1:2; as printed strand 1 nt 2-25 pair with strand 2 nt 27-50.

For data set [2], the target named is T2, Cas3 wild type (Escherichia coli K-12 MG1655, UniProt P38036 1-888).
T2 sequence: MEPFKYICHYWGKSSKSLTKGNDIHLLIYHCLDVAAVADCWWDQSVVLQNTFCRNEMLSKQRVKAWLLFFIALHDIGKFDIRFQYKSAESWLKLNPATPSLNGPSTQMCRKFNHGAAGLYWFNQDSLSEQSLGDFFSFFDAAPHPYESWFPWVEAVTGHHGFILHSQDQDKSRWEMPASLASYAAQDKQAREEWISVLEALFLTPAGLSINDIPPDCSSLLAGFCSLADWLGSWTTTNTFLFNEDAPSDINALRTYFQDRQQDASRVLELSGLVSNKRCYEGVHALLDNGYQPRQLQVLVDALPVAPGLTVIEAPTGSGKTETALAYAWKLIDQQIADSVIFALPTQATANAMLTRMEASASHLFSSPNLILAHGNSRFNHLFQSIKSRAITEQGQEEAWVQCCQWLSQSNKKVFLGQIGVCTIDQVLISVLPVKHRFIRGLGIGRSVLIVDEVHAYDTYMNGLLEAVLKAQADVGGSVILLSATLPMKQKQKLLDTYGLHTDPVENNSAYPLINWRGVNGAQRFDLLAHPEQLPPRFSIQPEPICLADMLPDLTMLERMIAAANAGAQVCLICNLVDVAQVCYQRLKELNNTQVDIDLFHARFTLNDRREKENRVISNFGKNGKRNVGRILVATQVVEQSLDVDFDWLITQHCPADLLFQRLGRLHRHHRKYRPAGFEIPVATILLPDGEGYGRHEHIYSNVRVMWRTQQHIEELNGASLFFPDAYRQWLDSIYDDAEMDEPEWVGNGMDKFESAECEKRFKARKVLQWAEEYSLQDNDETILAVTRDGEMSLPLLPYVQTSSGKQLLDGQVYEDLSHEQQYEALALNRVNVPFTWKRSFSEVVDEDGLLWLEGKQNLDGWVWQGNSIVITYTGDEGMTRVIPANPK
Nature of the data set: EMSA; EMSA: 20 nM fork DNA, 50 mM Tris-HCl pH 7.5, 100 mM NaCl, 0.1 mg/mL BSA, 20 mM DTT, room temperature, 1 h. The note with it: protein: recombinant; tags: (His)6-MBP N-terminal (pCas3); a His6-only construct (pAH4) also exists; label: 5'-Cy5 on strand 1 (MW12); fork 1:2; as printed strand 1 nt 2-25 pair with strand 2 nt 27-50. For orientation: A gel shift assay detects complexes by their altered migration in electrophoresis.

B1: DNA fork MW12/MW14 (mixed)
DNA 1: GTCGGATCCTCTAGACAGCTCCATGATCACTGGCACTGGTAGAATTCGGC
DNA 2: CAACGTCATAGACGATTACATTGCTACATGGAGCTGTCTAGAGGATCCGA
For the molecule B1, the binding result in data set [1] and in data set [2] was “binds” each time.
